Experiments:
Format in all cases: cell-based, human
[1] = system: T cells; assay: BrdU proliferation assay of T cells with peptide or protein loaded autologous dendritic cells
Description: The peptides were then combined with autologous dendritic cells. These were obtained by isolating peripheral blood mononuclear cells (“PBMCs”), from HLA-DR+donors, using Ficoll-Hypaque methods. These PBMCs were then incubated for 1-2 hours at 37° C., on plastic surfaces. Adherent monocytes were then cultured for 5 days in medium that had been supplemented with interleukin-4 (IL-4) and GM-CSF. To elaborate, AIMV medium supplemented with 1000 U/ml of IL-4, and 1000 U/ml of GM-CSF was used. This incubation stimulates differentiation into dendritic cells.
Samples of dendritic cells (8×10^5) were then loaded with 50 μg/ml of […] added peptide. The loading proceeded for 2 hours, at 37° C., in medium supplemented with 1000 U/ml of TNF-α and 10,000 U/ml of IL-1β. Peptide pulsed dendritic cells were then washed twice, in excess peptide free medium. Then, autologous peripheral blood lymphocytes (4×10^7) were combined with 8×10^5 peptide loaded dendritic cells (ratio of 50:1), in medium which contained 5 ng/ml of IL-7 and 20 U/ml of IL-2. Incubation was carried out at 37° C.
Cultures were restimulated weekly with peptide loaded, irradiated PBMCs.
The ability of the peptides to form complexes with HLA-DR molecules and to stimulate CD4^+ cell proliferation was determined by measuring BrdU uptake.
The specificity of the resulting CD4^+ cells was then tested by combing them with autologous dendritic cells that had been loaded with peptide, admixed with full length recombinant SSX-2 protein, or with an unrelated protein.
The results presented in Example 4 led to additional experiments using T cells that had been isolated from two donors using standard protocols. In these experiments, autologous dendritic cells were prepared, as described, and combined with T cells whose proliferation was determined in a BrdU assay. […] The SSX-2 full length molecule provoked just slightly less than 60% proliferation, while the peptide mixture provoked about 85% proliferation.

[2] = system: SSX-2 37-51 specific DR3 restricted CD4+ T cells; assay: Recognition of recombinant protein loaded EBV cells, IFN-γ ELISA; details: FIG. 9C, FIG. 10C
Description: For intracellular cytokine secretion detection, T cells were stimulated in the absence or in the presence of peptides at the indicated dose during 4 h as described previously (Ayyoub M, et al., J Clin Invest., 2004; 113 (8): 1225-33, see examples above). One hour after the beginning of the incubation, Brefeldin A ([…], Sigma) was added to inhibit cytokine secretion. After incubation, cells were stained with anti-CD4 mAb (BD Biosciences, San Diego, Calif.) for 20 min at 4° C. and fixed using formaldehyde, permeabilized with saponine (Sigma, 0.1% in PBS 5% FCS), stained with anti IFN-γ mAb (BD Biosciences) and analyzed by flow cytometry. Data analysis was performed using Cell Quest software. IFN-γ secretion was assessed as described (Ayyoub M, et al., J Clin Invest., 2004; 113 (8): 1225-33). T cells (10,000/well) and EBV transformed B cells (EBV) used as antigen-presenting cells (APC, 10,000/well) were incubated in the absence or in the presence of peptides at the indicated dose in 96-well round-bottom plates in […] of medium. In some experiments tumor cells were used as APC. […] After 24 h incubation at 37° C., culture supernants were collected and the content of IFN-g determined by ELISA (BioSource International, Camarillo, Calif., USA). […]

[3] = system: CD4^+ T-cells; assay: IFN-γ ELISPOT assay of peptide-primed CD4+ T-cells; details: T-cells prestimulated with p45-59; autologous and allogeneic DC
Description: PBMC from patients were isolated by Ficoll-Paque™ PLUS separation (Amersham Pharmacia Biotech AB, Uppsala, Sweden). For in-vitro priming, 1×10^7 and 2×10^6 unseparated PBMC, respectively, were suspended in 500 μl serum-free medium (X-Vivo 15 (Biowhittaker Europe s.p.r.l., Verviers, Belgium) supplemented with 2 mM L-glutamine (Gibco) and 1% penicillin/streptomycin (Gibco). For pulsing, the pool of the 3 SSX2-derived peptides (each at a concentration of 2 μg/ml) was added to the suspension of 1×10^7 cells, while the suspension of 2×10^6 PBMC was pulsed with the mix of 7 peptides (each at 2 μg/ml) derived from the pp65 antigen of the human CMV. Pulsing was performed for 90-120 minutes at 37° C. Thereafter the pulsed cells were washed once with serum-free medium and suspended for cultivation in X-Vivo 15 T-cell medium (Biowhittaker) supplemented with 10% human AB serum (Biowhittaker) and 6.7 ng/ml IL-7 (R&D systems). The 1×10^7 SSX2-pulsed PBMC were suspended in 3.75 ml T-cell medium and plated into 5 wells (0.75 ml/well) of a 48-well Nuncclone™ plate (Nunc GmbH & Co KG.). The 2×10^6 pp65-pulsed PBMC were plated into 1 well (0.75 ml). The remaining PBMC from the patients or donors, respectively, were divided into at least 3 aliquots of 1×10^7 PBMC and frozen until used for restimulation and in the T-cell assays. The peptide-pulsed PBMC which served both as APC and as a source for the T-cells to be used in the ELISPOT assay, were cultured at 37° C. One day after the stimulation was started, each well was supplemented with 250 μl X-Vivo 15 medium supplemented with 80 U/ml IL-2 (R&D Systems) resulting in a final concentration of 20 U/ml IL-2. The cells were incubated for 6 days under occasional microscopic control. On day 7 and before each ELISPOT assay, respectively, the percentage of CD4^+ T-cells in the culture well was determined. On day 7, cells were restimulated with autologous PBMC that had been pulsed with the appropriate peptides under the same conditions as described for day 0/1 at a CD4^+/APC ratio of 1:1. On day 14, the first ELISPOT assay was performed. To this end, the cultured cells were harvested from the respective wells and the primed CD4^+ cells were used as effectors in the ELISPOT assay. The remaining cells were restimulated once more using conditions as described before. […] no specific reactivity was shown by day 21, the stimulation was repeated weekly until all CD4^+ cells were consumed.
At least three IFN-γ ELISPOT assays were performed on days 14, 21 and 28, respectively. All tests were run in triplicates in order to determine mean values and standard deviations. Assays were performed in nitrocellulose-lined 96-well plates (MAHA S45 by Millipore, Bedford Mass., USA). The wells were pre-coated overnight with PBS (50 μl/well) containing an anti-IFN-γ capture antibody at the dilution recommended in the supplier's instructions (Mabtech AB, Nacka, Sweden). To block unspecific binding, the wells were then incubated with 10% human AB^+ serum for 1 h at 37° C. For the priming of effector cells, 2.5×10^4 CD4^+ T-cell were harvested, washed once to remove the cytokines, and were tested for specific recognition of the corresponding antigen. To this end, peptide-primed CD4^+ cells were harvested, washed once to remove cytokines, resuspended, and 50 μl of the cell suspension in X-Vivo 15 medium were added to each well. […]

B1: SSX-2 full length molecule: full length recombinant SSX-2 protein (protein, UniProt Q16385 1-188, looked up)
chain: MNGDDAFARRPTVGAQIPEKIQKAFDDIAKYFSKEEWEKMKASEKIFYVYMKRKYEAMTKLGFKATLPPFMCNKRAEDFQGNDLDNDPNRGNQVERPQMTFGRLQGISPKIMPKKPAEEGNDSEEVPEASGPQNDGKELCPPGKPTTSEKIHERSGPKRGEHAWTHRLRERKQLVIYEEISDPEEDDE
modifications: full-length
notes: full length recombinant SSX-2 protein
- proliferation ([1]; first set of experiments, mixture of the 5 peptides of Example 4 compared to equal amount of protein): less than 60%
- T cell proliferation induced by pulsed dendritic cells ([1]; six individual experiments, versus other peptides or TALL): greater T cell proliferation
- processing and presentation of recombinant protein by DR3+ EBV cells, recognition by specific CD4+ T cells [2]: efficiently process
- T-cell response to dendritic cells pulsed with whole protein [3]: induced a significant T-cell response

Reference: patent US7989587B2, “SSX-2 peptides presented by HLA class II molecules” (Ludwig Institute for Cancer Research Ltd., priority 1999, dated 2011)
